From publication PMC10588934 come the findings set out here.

The assay deals with dopamine receptor D1 fused to LgBiT (UniProt P21728). The assay can be described thus: split reporter.
UniProt P21728, sequence (P21728 whole entry, the tested form may be a part): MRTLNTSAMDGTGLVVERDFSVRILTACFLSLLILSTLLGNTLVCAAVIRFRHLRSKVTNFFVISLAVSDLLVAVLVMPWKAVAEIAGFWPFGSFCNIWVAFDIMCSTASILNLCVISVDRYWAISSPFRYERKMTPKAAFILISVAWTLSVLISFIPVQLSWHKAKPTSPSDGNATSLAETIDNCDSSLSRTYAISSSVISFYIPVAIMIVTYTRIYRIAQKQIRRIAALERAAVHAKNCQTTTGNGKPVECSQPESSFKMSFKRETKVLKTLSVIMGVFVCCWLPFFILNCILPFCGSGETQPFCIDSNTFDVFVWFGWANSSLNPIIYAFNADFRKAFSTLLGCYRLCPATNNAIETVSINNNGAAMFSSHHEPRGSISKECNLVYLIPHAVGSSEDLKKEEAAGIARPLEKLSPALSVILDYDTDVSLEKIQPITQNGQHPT

In turn, SmBiT-miniGs (domain or fragment) had a DDR (luminescence with drug / without drug) of 1.6.
